Measurements as given in patent US20250034266A1 (ZAI LAB SHANGHAI, published 2025).
Numbering of substitutions follows the chain as printed.

B1: 149F2C10 (antibody, V domains shown)
VH: EVQLVESGGGLVQPKGSLKLSCAASGFTFNTYAMNWVRQAPGKGLEWVARIRSKSNFYATYYADSVKDRFTISRDDSQDMLYLQMNILKTEDTAIYYCVRGRDYGSSYAMDYWGQGTSVTVSS
VL: DIVMTQAAPSVPVTPGESVSISCRSSKSLLHSNGNTYLYWFLQRPGQSPQLLIYRMSNLASGVPDRFSGSGSGTAFTLRISRVEAEDVGVYYCMQHLEYPLTFGAGTKLELK
notes: also called 1491F2C0
B2: 160D1E3 (antibody, V domains shown)
VH: B1 VH with F57Y, I87N
VL: B1 VL
notes: Murine hybridoma antibody
B3: 191E12H8 (antibody, V domains shown)
VH: DVQLQESGPGLVKPSQSLSLTCSVTGYSITSGYYWNWIRQFPGNKLEWMGYISYDGSNNYNPSLKNRISITRDISKNQFFLKLNSVTTEDTATYYCARQIGLRRGAMDYWGQGTSVTVSS
VL: DIQMTQSSSYLSVSLGGRVTITCKASDHINTWLAWYQQKPGNAPRLLISGSTSLKAGVASRFSGSGSGKDYTLTITSLQTEDVATYYCQQYWGIPFTFGGGTKLEIK
notes: Murine hybridoma antibody
B4: 234G9C12 (antibody, V domains shown)
VH: B3 VH with I52T, L64F, Y109H
VL: B3 VL with T31N, K55R
notes: Murine hybridoma antibody; also called 234G4C12
B5: 262C2G7 (antibody, V domains shown)
VH: B3 VH with Q3H
VL: B3 VL with T31N
notes: Murine hybridoma antibody
B6: 273H2G6 (antibody, V domains shown)
VH: B3 VH with I100V
VL: B3 VL with T31N, T74S, G93S, F96Y
notes: Murine hybridoma antibody
B7: 348E2D11 (antibody, V domains shown)
VH: QVQLVETGGGLVRPGNSLKLSCVTSGFSFSNYRMHWLRQPPGKRLEWIAVITVKSDNYGANYAESVKGRFTISRDDSKSSVYLQMNRLREEDTATYYCSSLGRVAYWGQGTLVTVSA
VL: DIVMTQSQKFMFTSVGDRVSVTCKASQNVDTNVVWYQQKPGQSPKALIYSASSRYSGVPDRFTGSGSGTDFTLTISNVQSEDLAEYFCQQHNSFPLTFGAGTKLELI
notes: Murine hybridoma antibody
B8: 164G10D6 (antibody, V domains shown)
VH: B1 VH
VL: B1 VL
notes: Murine hybridoma antibody; also called 164G10C6
B9: 204A2G12 (antibody, V domains shown)
VH: B3 VH with S57T, I74T, N84T, I100V, G105A, A106W, M107F, D108A, S115L, S120A
VL: DIQMTQSSSFLSVSLGGRVTITCKASDHINYWLAWYQQKPGNAPRLLISGATSLETGVPSRFSGSGSGKDYTLTITSLQNEDVATYYCHQYWSTPTFGSGTKLEIK
notes: Murine hybridoma antibody
B10: 153D4G2 (antibody, V domains shown)
VH: B1 VH
VL: B1 VL
notes: Murine hybridoma antibody; also called 153D3G2; 1531D4G2
B11: 160D1E3 (antibody, V domains shown)
VH: B1 VH with F57Y, I87N
VL: B1 VL
notes: purified murine hybridoma antibody
B12: 153D4G2 (antibody, V domains shown)
VH: B1 VH
VL: B1 VL
notes: as for B11
B13: 164G10D6 (antibody, V domains shown)
VH: B1 VH
VL: B1 VL
notes: as for B11

target: T1, human CCR8 (human, UniProt P51685 1-355); experiment: FACS competition, hybridoma supernatant with 4 nM AF647-human CCL1 on human CCR8 cells
T1 construct: whole, on cells; In the β-arrestin assay CCR8 is fused to the ProLink (PK) tag; also called hCCR8; CHO-K1-human CCR8
T1 sequence (P51685 whole entry, the tested form may be a part): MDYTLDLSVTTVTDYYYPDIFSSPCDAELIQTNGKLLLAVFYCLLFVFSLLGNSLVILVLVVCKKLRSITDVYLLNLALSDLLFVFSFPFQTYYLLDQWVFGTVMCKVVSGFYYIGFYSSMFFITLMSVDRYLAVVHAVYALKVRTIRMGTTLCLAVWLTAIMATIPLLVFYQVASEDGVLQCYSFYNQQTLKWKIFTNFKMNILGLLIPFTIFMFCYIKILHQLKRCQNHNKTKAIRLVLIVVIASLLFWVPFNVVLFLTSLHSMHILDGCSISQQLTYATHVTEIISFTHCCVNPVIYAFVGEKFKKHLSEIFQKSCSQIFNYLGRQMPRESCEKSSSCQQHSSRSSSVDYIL

Binder	Inhibition Rate (%)
B1	99.2
B2	99.1
B3	84.8
B4	88.9
B5	92.4
B6	90.2
B7	100
B8	99.4
B9	94.7
B10	99.1

target: T2, cynomolgus CCR8 (cynomolgus, UniProt G7NYJ2 1-355); experiment: FACS on HEK293-Cynomolgus CCR8 cells
T2 construct: whole, on cells; also called HEK293-Cynomolgus CCR8; ExpiCHO-S cynomolgus CCR8
Description: (§1) The binding affinities of purified antibodies were determined on human CCR8 and cynomolgus CCR8 over-expressing cells. Briefly, CFSE (Life technology, Cat #: C34554) labeled CHO-K1-human CCR8 cells mixed with CHO-K1 cells, CFSE labeled HEK293-human CCR8 cells mixed with H1EK293 cells, or CFSE labeled H1EK293-cynomolgus CCR8 cells mixed with HTEK293 cells were used in the assay. The mix ratio was 1:1. A total of 5×10⁴ mixed cells for each well were seeded in 96-well plate and washed by FACS buffer (DPBS containing 10% FBS) once. Cells were incubated by series diluted purified hybridoma antibodies for 1 hour at 4° C. Antibodies were prepared with 3-fold serial dilution ranging from 200 nM to 0.003 nM in FACS buffer. After primary antibody incubation, cells were washed by FACS buffer for three times. Then, cells were stained with secondary antibody (Alexa Flu647-conj gated rabbit anti-mouse IgG, Jackson ImmunoResearch, #315606046) at 1:600 dilution in FACS buffer and incubated for 0.5 hour at 4° C. […] FlowJo software was used for analysis. Data was plotted as the logarithm of antibody concentration versus mean fluorescence signals. EC₅₀ values were calculated in GraphPad Prism 8 (GraphPad Software) using a log(agonist) vs. response-Variable slope (4 parameters) curve fit. […] The EC₅₀s of the selected antibodies on human CCR8 are less than 5 nM except those of 262C2G7 and 234G9C12. The EC₅₀s of the selected antibodies on cynomolgus CCR8 are less than 1 nM except that of 348E2D11 (Table 8).

T2 sequence (G7NYJ2 entry or part of it): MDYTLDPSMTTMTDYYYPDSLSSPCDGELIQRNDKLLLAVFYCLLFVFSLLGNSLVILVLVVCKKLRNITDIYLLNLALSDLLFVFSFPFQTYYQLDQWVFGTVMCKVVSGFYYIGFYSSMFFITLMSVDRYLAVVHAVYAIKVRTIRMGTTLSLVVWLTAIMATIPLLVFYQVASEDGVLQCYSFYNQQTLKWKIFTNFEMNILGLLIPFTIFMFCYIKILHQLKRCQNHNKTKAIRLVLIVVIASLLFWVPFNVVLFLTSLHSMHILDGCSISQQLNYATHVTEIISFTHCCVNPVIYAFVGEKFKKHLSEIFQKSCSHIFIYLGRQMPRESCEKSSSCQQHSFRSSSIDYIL

Binder	EC50 [nM]	Max MFI [MFI]
B1	0.479	8830
B2	0.422	8940
B3	0.397	5190
B4	0.212	4140
B5	0.216	2940
B6	0.154	3500
B7		7580
B8	0.32	8290
B9	0.163	3200
B10	0.699	10700

target: T1, human CCR8; experiment: FACS on CHO-K1-human CCR8 cells
Description: as §1

Binder	EC50 [nM]	Max MFI [MFI]
B1	0.878	50700
B2	0.456	51500
B3	2.25	24000
B4	18.5	73900
B5	126	86400
B6	0.137	8490
B7	0.397	51500
B8	0.652	54900
B9	0.334	10200
B10	0.64	51400

target: T1, human CCR8; experiment: FACS on HEK293-human CCR8 cells
Description: as §1

Binder	EC50 [nM]	Max MFI [MFI]
B1	0.346	12000
B2	0.278	11900
B3	1.5	10700
B4	1.42	9840
B5	0.139	7210
B6	0.149	4680
B7	0.111	11000
B8	0.277	11900
B9	0.142	3620
B10	0.24	11600

target: T1, human CCR8; experiment: FACS, hybridoma supernatant on CHO-K1-human CCR8 cells
Description: (§2) Binding of hybridoma supernatant on CHO-K1-human CCR8 and ExpiCHO-S cynomolgus CCR8 cells. A total of 660 96-well plates were seeded and screened by FACS binding from the hybridoma derived from immunized animals.
(§3) To obtain antibodies cross-reactive to human and cynomolgus CCR8, hybridomas from mice immunized with human and cynomolgus CCR8 DNAs were screened by FACS. Briefly, 50 μL ExpiCHO-S cells transfected with human CCR8 or cynomolgus CCR8 (cell density: 2×10⁶ cells/mL, viability>90%) were incubated with equal volume hybridoma supernatant in 96 well plate (Corning) at 4° C. for 1 hour. […] Finally, the mixture was washed and resuspended with FACS buffer, and subjected to FACS analysis on BD FACS Celesta.

Binder	Binding Ratio (GFP + MFI)/(GFP - MFI)
B1	170
B2	168
B3	345
B4	413
B5	404
B6	120
B7	169
B8	198
B9	145
B10	215

target: T3, human CCR8 (human, UniProt P51685 1-355); experiment: FACS, competition with AF647-human CCL1 on HEK293-human CCR8 cells
T3 construct: whole, on cells; also called hCCR8
Description: (§4) Antibodies were prepared with 3-fold serial dilution ranging from 200 nM to 0.01 nM in FACS buffer. Then, cells were washed by FACS buffer for three times after incubation. […] FlowJo software was used for analysis. Data was plotted as the logarithm of antibody concentration versus mean fluorescence signals. IC₅₀ values were determined in GraphPad Prism 8 (GraphPad Software) using a log(agonist) vs. response-Variable slope (4 parameters) curve fit.
T3 sequence (P51685 whole entry, the tested form may be a part): as the sequence (P51685 whole entry, the tested form may be a part) above

Binder	IC50 [nM]	Max Inhibition (%)
B11	0.891	100
B12	0.836	96.2
B13	0.599	96.6

target: T3, human CCR8; experiment: cell-based or functional assay

Binder	IC50, inhibition of CCL1 induced β-Arrestin recruitment [nM]	Max Inhibition (%), CCL1 induced β-Arrestin recruitment [%]
B11	1.04	41.3
B12	6.57	33.8
B13	0.46	42

target: T3, human CCR8; experiment: FACS, competition with AF647-human CCL1 on CHO-K1-human CCR8 cells
Description: as §4

Binder	IC50 [nM]	Max Inhibition (%)
B11	0.728	98
B12	0.661	98.2
B13	0.602	97.9

target: T2, cynomolgus CCR8; experiment: FACS, hybridoma supernatant on cynomolgus CCR8 cells
Description: as §2, §3

Binder	Binding Ratio (GFP + MFI)/(GFP - MFI)
B1	98.2
B2	92.2
B3	91.4
B4	101
B5	99.8
B6	112
B7	74.2
B8	102
B9	133
B10	127
